Measurements: patent publication US7470669B2, “Isolated polypeptide comprising a leptin fragment” (Serono Genetics Institute, S.A., priority 1999, dated 2008)

Assays:
LSR β = biological target: T1, LSR β (Homo sapiens, UniProt Q86X29); experiment: 125I-leptin binding in CHO-K1 cells transiently transfected with LSR β; type: cell-based; settings: transient transfection with LSR β plasmid; 10 ng/mL 125I-leptin
T1 construct: The full-length LSR α, α′, and β clones were reconstructed in pTracer-CMV2 vector; expressed in transfected cells; host or cells: CHO-K1, transient (Fugene), pTracer-CMV2
T1 sequence (Q86X29 1-581 isoform Q86X29-5): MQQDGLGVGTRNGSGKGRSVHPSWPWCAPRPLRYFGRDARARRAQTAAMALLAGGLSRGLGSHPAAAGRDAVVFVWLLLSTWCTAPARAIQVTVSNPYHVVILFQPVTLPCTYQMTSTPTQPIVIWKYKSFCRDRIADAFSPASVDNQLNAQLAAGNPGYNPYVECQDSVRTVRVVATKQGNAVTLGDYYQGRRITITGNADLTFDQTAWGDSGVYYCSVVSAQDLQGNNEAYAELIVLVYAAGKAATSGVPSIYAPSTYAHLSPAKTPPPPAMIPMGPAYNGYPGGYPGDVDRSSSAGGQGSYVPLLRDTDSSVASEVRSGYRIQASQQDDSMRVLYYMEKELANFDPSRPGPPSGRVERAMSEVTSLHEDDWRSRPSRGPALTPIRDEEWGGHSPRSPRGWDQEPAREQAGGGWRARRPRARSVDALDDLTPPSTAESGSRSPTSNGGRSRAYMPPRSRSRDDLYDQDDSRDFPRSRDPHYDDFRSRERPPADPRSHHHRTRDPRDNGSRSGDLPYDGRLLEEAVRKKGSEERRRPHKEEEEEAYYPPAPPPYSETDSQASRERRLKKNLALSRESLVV
Method: FIGS. 3A, 3B, 3C, and 3D show the effect of LSR subunit transfection on leptin binding and degradation in CHO-K1 cells. For FIG. 3A, CHO-K1 cells were transfected with increasing concentrations of the α, (□), α′ (▪) or β (◯) LSR plasmid, or vector alone (●) using Fugene transfection reagent. After 48 h, the cells were washed once in PBS and incubated at 37° C. for 2 h with 10 ng/mL of ^125I-leptin in DMEM containing 0.2% (w/v) BSA, 2 mM CaCl2 and 5 mM HEPES, pH 7.4 (Buffer A). The monolayers were washed and lysed with 0.1 N NaOH containing 0.24 mM EDTA, and the lysates were counted. The results are shown as the amount of cell-associated ^125I-leptin. For FIG. 3B, lysates were prepared from CHO-K1 wild type, stable transfectants of vector or LSR α′ subunit, and PLC, and separated on a 10% SDS-polyacrylamide gel under denaturing and reduced conditions. After transfer to nitrocellulose, Western blots were performed using anti-LSR 170 antibody (can also be done with the human equivalent, 93A). […] For FIGS. 3C and 3D, confluent monolayers of stable-transfected cell lines expressing LSR α′ subunit (▪) or vector alone (●) were washed once in PBS and incubated at 37° C. for 2 h with increasing concentrations of ^125I-leptin in Buffer A. The amount of cell-associated (FIG. 3C) and degraded (FIG. 3D) ^125I-leptin was then measured as described herein. […]

[1] = Plasma leptin concentration after subcutaneous leptin injection in ob/ob mice; type: in vivo, mouse; settings: 50 ng s.c., at 2 h
Text: Na ^125I was purchased from Amersham-Pharmacia (Piscataway, N.J.; Les Ulis, France). Oleic acid, bovine serum albumin (A2153) (BSA), were obtained from Sigma (St. Louis, Mo.; St. Quentin Fallavier, France). Sodium heparin was purchased from Choay laboratories (Gentilly, France). Fugene was purchased from Roche Boehringer Mannheim (Indianapolis, Ind.), and Superfect from Qiagen (Valencia, Calif.). Zeocin was obtained from Invitrogen (Carlsbad, Calif.). Suramin was a gift from Bayer Pharmaceuticals (Puteaux, France). Enzymatic kits for the determination of TG and FFA were obtained from Roche-Boehringer Mannheim (Meylan, France) and WAKO (Richmond, Va.; Unipath, Dardilly, France), respectively. Dulbecco's modified Eagle's medium (DMEM), trypsin, penicillin-streptomycin, glutamine, and fetal bovine serum (FBS) were purchased from Life Technologies, Inc (Grand Island, N.Y.; Eragny, France). RIA kits for plasma leptin measurements were obtained from Linco (St. Louis, Mo.). […]
This injection caused a transient increase in plasma leptin concentrations up to 3.25±0.03 ng/mL at 2 h; baseline values were recorded 4 h after injection. […]

LSR = experiment: 125I-leptin degradation in PLC cells; type: cell-based, human; settings: PLC cells, 2 h incubation

leptin: plasma protein of 16 kDa produced by adipocytes; recombinant human or mouse leptin, species depends on the experiment
Leptin binding to CHO-K1 cells (LSR β): remained at levels similar to those seen with the vector alone
plasma leptin concentrations [1]: 3.25 ± 0.03 ng/mL
leptin concentration at which 125I-leptin degradation saturated (LSR): ≥ 10 ng/mL
